The results in this text go back to patent publication EP1292709B1.

For this assay, the target named is receptors that recognize the sequence GRGDSPG. As to the kind of experiment: cell-based or functional assay.

Where no end group is shown, it is not given here.

B1: … (peptide)
peptide: GC(PEG acrylate)GYGRGDSPG
The molecule B1 returned an adhesion and spreading of human foreskin fibroblasts on conjugate addition gels, 6 hours post-seeding of 50%.
